In patent US20240287489A1, “CHITINOLYTIC ENZYME-BASED PLANT PROTECTION AGENTS” (GLOBACHEM NV, priority 2021, published 2024):
Entries after “also recorded” stand apart in the source; their conditions may differ.

B1: Chitinase 5: chitinolytic enzyme from P. orarium, SEQ ID NO: 5, recombinant with PelB signal peptide and 6×His tag (protein, listed as Photobacterium orarium)
chain: MAMGWSQININGVQKWEEAYSLNVDAANEIITIGAADTAGALYASQSLLQLVDGNKVPEVQITDAPRFAYRGFSVDAVRNFRTKDAIIQLLDQMAAFKLNKLHLRLADDEGWRIEIAGLPELTDVGATRCHDPEEKACILPFLGAGPDGSPESNGYYTATDYQDILSHAAALNIEVVPEIDIPGHAHAAIKAMEARYDHYAAQGNMAEANKYLLTDFNDTTQYLSVQMFTDNAINVCMESSYNFVDAVVSGLVSLHQGVQPLKTFHFGGDEIAGAWINSPACQDFIANNTDGVHSVSDLSRYFVERISVITANYGLDMAGWEDGLMHDGQVYPRSQMANNQLWGNAWQNIWEWGVADRAYNLANNDYKVVYNHATHLYFDHPYEPDPNERGYYWAPRFTDTRKTFGFMPDDVFANADFTRAGAPITKAEVVASAGVKKLLKPENVLGLQGSLWAEAVRTEDQFEGMIFPRVLGLAERAWHTATWEANDNAGIALDETGRNADYNHFANLLGQKVLPKLEQAGIAFNLPVPGGVIENGVLQANSTFPGLTIEYSTDQGTSWQSYDHLNPPAVAAGVQLRTVSGQRTSRVTTVNIE
modifications: PelB signal peptide; 6xHis tag; Chitinase 5
B2: Chitinase 2: chitinolytic enzyme from P. orarium, SEQ ID NO: 2, recombinant with PelB signal peptide and 6×His tag (protein, listed as Photobacterium orarium)
chain: MATANYNPDGVYSAGEQVIYQGATYQALRSTENEAPDTYLGDAWQQVNAQNVTSSTTPTYPAYQSSAVYVGGDHVSYNSQIYKAKWWTQGEAPDATPGTGVWEWVSADNNPDPGPGPDPDPTPEPTPANGIIGQNPDGSYIMSKTYLDAREAELTSSPEFAAVLASISTRDNAVVEAVVPGLSTNPDNVKRVEALISEQKWDALFPERNVVYTYSNFLKAVAKFKGFCATYTDERAAQSDAICAKSLAVMFAHFTQETGAHNPHSPYEEWRQGLFFVREAGCSEEASSCGYNSECAASNWQTEQWPCGTNPDGSYVKYFGRGAKQLSYHYNYGPFSDFIFNDVNVLLQDPDRVADSWLNLASAVFFFVYPQPPKPSMLHVIDGTWQPTAADIAEKRVPGFGVTTMIINGGIECTLDTEKPQSVNRIKYYRGHAAALGVAIPADEQLGCAGMKAFKKTGDSTFGLYWENDWSYYPDNPGGSSFACRIESGYQTAHTTLKKGDYAKCIQKYYGVTIE
modifications: PelB signal peptide; 6xHis tag; Chitinase 2

What was measured:
[1] = Temperature, pH and NaCl optima and temperature stability of recombinant chitinases (reducing end assay); format: biochemical; details: for enzyme activity (relative): 20% (w/v) NaCl; for enzyme activity (relative) / Optimum salinity: pH 8, 30° C.; for Optimum pH / Optimum salinity: chitin powder; for Optimum pH: 30° C., pH 4-11; for Optimum salinity: 0-20% w/v NaCl
Description: All enzymes were first characterized regarding their temperature and pH-optima as well as the optimum NaCl content as the enzymes were isolated from a sea-water microorganism. As the future intention is to integrate these novel enzymes in a degradation processes of natural chitin, all parameters were determined using chitin powder as a substrate instead of pre-treated analogs such as colloidal chitin, glycol chitin or artificial fluorogenic substrates. […] (FIG. 5A). Next, enzyme temperature stability was investigated (FIG. 51). […] Enzyme C1 retained a 50% residual activity after 240 min incubation at 60° C., while the activity of the other chitinases dropped below 50% after 15 min and remained on that level.
Given the marine origin of the P. orarium strain, the effect of salt was also evaluated, testing the addition of NaCl to the standard buffer. […] Increasing NaCl amounts up to 20% (w/v) reduced enzyme activity substantially to 10% for C2, 4 and 5, with C1 and C3 showing highest tolerance (65% activity).
For the determination of enzymatic activity of recombinant chitinases, a reducing end assay was carried out [Svein et al., Carbohydr Polym, 2004. 56(1): p. 35-39.]. Fractions containing chitinases were incubated with 5% (w/v) chitin powder extracted from shrimp shells (˜400.000 g/mol; Carl Roth) in MAT buffer for 2 h in an overhead shaker at ambient temperature (standard conditions). Samples were centrifuged at 13000×g for 2 min and 40 μl of the supernatant was mixed with 40 μl 0.5 M NaOH and 40 μL of a reagent containing 1.5 mg/ml 3-Methyl-2-benzothiazolinonhydrazon and 0.75 mg/ml Dithiothreitol. Samples were incubated at 80° C. for 15 min and then thoroughly mixed with 80 μl of 0.5% (w/v) FeNH4(SO4)2)×12H2O, 0.5% (w/v) sulfamic acid and 0.25 M HCl. After cooling down to room temperature, 100 μl of the samples were measured at 620 nm. A calibration curve of N-acetyl-glucosamine was constructed freshly for each measuring cycle. One unit [U] was defined as the amount of enzyme required to release 1 μmol of reducing sugars per hour.
(§1) Enzyme samples were incubated at different temperature (10-60° C., 10° C. increment) and pH (4-11, increment 1) using different buffer systems (Acetate, Tris-HCl, MES, total molar concentration 100 mM), as well as NaCl content (0, 1. 2.5, 5, 10 and 20% w/v) to determine optimum reaction conditions. All experiments were carried out at 1.0 ml scale using 2 μM of the respective enzymes and a 5% (wv) suspension of chitin powder extracted from shrimp shells (˜400.000 g/mol; Carl, Roth) in 100 mM MAT buffer. For the determination of the substrate specificity, chitin powder (5% w/v), glycol chitin (10% v/v), colloidal chitin (5% w/v), chitosan [DA 15-25%, medium molecular weight, Sigma-Aldrich] (5% w/v) and microcrystalline cellulose powder (Sigma Aldrich) (5% w/v) were investigated, respectively. The effect of several potential co-factors on activity was elucidated at a concentration of 1 mM. Additionally, the effect of detergents [SDS 0.5% (w/v), Tween-20 and Triton X-100 both at 0.5% (v/v)] and chemicals (Imidazole 100 mM, EDTA 1 mM) on enzymatic activity was assessed. Samples were incubated in a thermomixer for 16 h at 900 rpm. After incubation, samples were analyzed using the enzyme assay. Thermostability was assessed after incubation of recombinant chitinases at 60° C. for different durations followed by the quantification of residual enzyme activity under standard assay conditions.

[2] = Enzyme kinetics on chitin powder (Michaelis-Menten non-linear fit); format: biochemical; details: 2 μM enzyme, 0-150 mg/ml chitin powder
Description: Enzyme kinetics were determined using chitin powder as a substrate and the optimum enzyme to substrate ratio could be determined as well as Vmax and Km values. The concentrations of chitin powder varied
from 0 mg/ml up to 150 mg/ml while amount of enzyme was kept constant (2 μM). The initial velocities (V0) versus substrate concentration ([S]) were plotted as Lineweaver-Burk and Michaelis-Menten curves using GraphPad software (FIG. 7).
Maximum reaction velocities (Vmax) and Michaelis-Menten constants (Km) were determined using a non-linear fit Michaelis-Menten model (Table 4.6). Thereby, optimum enzyme-substrate ratios were determined that would allow a maximization of substrate conversion rates. Furthermore, the Km indicated the reciprocal enzyme-substrate affinity for C1-C5. Higher Km values reflect an overall lower affinity and thus reduced conversion efficiencies. […] In comparison, higher Km values for C2 and C5 reflected an overall lower affinity to insoluble chitin.
as §1

[3] = TLC analysis of cleavage patterns with chitin standard molecules; format: biochemical; details: for hydrolysis products from chitin pentamers / hydrolysis products from chitin trimers: 4 mg/ml, 16 h, TLC; for cleavage mechanism (exo-/endo-chitinase activity): TLC of products from oligomeric or polymeric chitin substrates
Description: monomeric oligomers. Chitosan was degraded to a crude mixture of multiple oligomers ranging from dimers to pentamers and even larger undefined yet water-soluble fragments that migrated slightly from the starting point. Further analysis of the cleavage patterns was carried out using chitin standard molecules of DP2-DP6 and incubating them at 4 mg/ml concentration with the individual enzymes (FIG. 9).
Dimeric chitin molecules were not converted by any of the enzymes. […] All chitinases degraded chitin tetramers to dimers as a single product. […] Chitin hexamers were degraded to dimers and trimers. Although all chitinases are different in their structure and present different glycosyl hydrolase domains hydrolysis products in general were similar.
C2, 4 and 5 yielded similar product patterns when incubated with insoluble substrates. […] The presented data underline that the novel chitinases are all suited for the degradation of powdery chitin without any further harsh chemical pre-treatment.
Hydrolysis products were analyzed using 10×10 cm TLC Silica gel 60 F254 plates (Merck, Darmstadt, Germany) and a mixture of butanol:methanol:25% ammonia:H2O (5:4:2:1) as mobile phase. A total sample volume of 0.5 μl was applied in 0.25 μl spots. Chitin standard sugars (Megazyme, Chicago, USA) (5 mg/ml) were applied to the plate (0.5 μL in 0.25 μL spots) as size standard for the determination of the DP. After separation, the plate was air-dried and the developing solution (200 ml Acetone, 30 ml phosphoric acid (85%), 4 ml aniline, 4 g diphenylamine) was sprayed on the plate followed by spot visualization at 300° C. using a heat gun.

[4] = test system: Fusarium oxysporum; experiment: Minimum inhibitory concentration (MIC) test on fungal pathogens; format: cell-based; parameters: key: xx = no growth/strong inhibition; x = small inhibition; details: start concentration 100 μg/ml

Row | Molecule | enzyme activity (relative) [1] | Optimum pH ([1]; listed as C5) | Optimum salinity [1] | Km (enzyme-substrate affinity) [2] | Vmax (maximum reaction velocity) [2] | hydrolysis products from chitin pentamers [3] | hydrolysis products from chitin trimers [3] | cleavage mechanism (exo-/endo-chitinase activity) ([3]; listed as C5) | growth inhibition of Fusarium oxysporum in the MIC test [4] | Optimum pH ([1]; listed as C2) | cleavage mechanism (exo-/endo-chitinase activity) [3]
1 | B1 | 10% | 9 | 0 % NaCl | 36.0 mg/mL | 89.5 U/ml | trimers and dimers | no activity | no exochitinase activity; also recorded: endo-chitinase activity | xx |  | 
2 | B2 | 10% |  | 1 % NaCl | 61.8 mg/mL | 175.4 U/ml | trimers and dimers | no activity |  | xx | 10 | endo-chitinase activity
